One molecule from patent US20030082643A1 (Bristol-Myers Squibb, published 2003) can be followed below.

For one experiment, the target named is T1, soluble recombinant CD89 (human, UniProt P24071 22-227, limits assumed).
T1 construct: Soluble recombinant CD89, coated on ELISA plates, immobilised on BIAcore chips or in solution; also called sCD89; recombinant soluble CD89 antigen
Put plainly: ELISA. As to the method:
Solid-phase ELISA based assays were employed in the binding studies. Briefly, soluble recombinant CD89 in PBS was coated onto 96-well microtiter plates (1 μg/ml) and incubated overnight at room temperature. The plates were then washed with PBS-0.2%Tween-20 (PBST) and blocked with chicken serum albumin in PBST for 1 hour at room temperature. Supernatants from the anti-CD89 producing hybridomas or purified antibody (in PBS) were added to the wells and incubated for 2 hours at room temperature. The plates were washed with PBST as above and then incubated with 50 μl of HRP-conjugated goat-anti-human for 1 hour at room temperature. After washing, 100 μl of ABTS (150 mg 2,2′-azino-bis (3-ethylbenzthiazoline-6-sulfonic acid in 500 ml of 0.1 M citric acid, pH 4.35)/H₂O₂ (10 μl 30% H₂O₂ per 10 ml of ABTS solution) chromagen/substrate solution was added to each well and the samples read with a microplate reader at a wavelength of 405 nm.
Hybridomas which produced human IgG that bound CD89 were further characterized for isotype using ELISA (Human Kappa) (same protocol described above). […] Purified antibodies were extensively dialyzed against 0.3 M sodium carbonate buffer, pH 9.5, for labeling with […] (FITC). […]
For orientation: An ELISA detects its analyte on a solid surface through an enzyme-linked reagent.

Experiment [1] deals with T2, human CD89 expressed on cells (human, UniProt P24071 22-287).
T2 construct: whole, on cells; also called FcalphaRI; 2a1.6/CD89 cells
T2 sequence (P24071 22-287): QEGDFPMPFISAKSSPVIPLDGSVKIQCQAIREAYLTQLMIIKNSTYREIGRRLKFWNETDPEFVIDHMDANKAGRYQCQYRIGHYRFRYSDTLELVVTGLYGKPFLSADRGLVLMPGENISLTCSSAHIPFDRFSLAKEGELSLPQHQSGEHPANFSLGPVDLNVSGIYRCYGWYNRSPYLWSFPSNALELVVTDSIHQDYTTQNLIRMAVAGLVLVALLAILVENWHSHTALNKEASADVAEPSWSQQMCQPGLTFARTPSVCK
Put plainly: flow cytometry on 2a1.6/CD89 cells, human PMNL and PMNL of human-CD89 transgenic mice. (Flow cytometry measures light scatter and fluorescence of single cells or particles in a stream.)

T1 sequence (P24071 22-227 limits assumed): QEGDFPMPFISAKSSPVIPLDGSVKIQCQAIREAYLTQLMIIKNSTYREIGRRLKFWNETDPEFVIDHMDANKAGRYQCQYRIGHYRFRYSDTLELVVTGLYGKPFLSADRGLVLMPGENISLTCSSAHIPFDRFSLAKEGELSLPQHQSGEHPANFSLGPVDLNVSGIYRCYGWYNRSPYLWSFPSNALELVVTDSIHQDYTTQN

B1: human monoclonal antibody (HuMAb) 8.2 (antibody, V domains shown)
VH: QVQLVESGGGVVQPGRSLRLSCAASGFTFSSYAMHWVRQAPGKGLEWVAVISYDGRNKDYADSVKGRFTISRDNSKNTLYLQMNSLRAEDTAVHYCARLDWGYDAFDIWGQGTMVTVSS
VL: not shown
notes: Human IgG1 kappa from hybridoma; also called 8D2
Consider B1, for which the binding result (with soluble recombinant CD89; in experiment [1]) was “binds” each time.
